The results in this text go back to patent US10828354B2, “Laser-assisted intradermal administration of active substances” (PANTEC BIOSOLUTIONS AG, priority 2015, dated 2020).

The test system of one assay is B16-OVA melanoma. Kind of assay: B16-OVA melanoma tumor model. The class given is in vivo, mouse. The note with it: for tumor growth, therapeutic setting: B6 mice, immunized 3 days after s.c. inoculation, monitored 16 days after inoculation, vs OVA and PBS groups. The method, then: B Cohort of mice treated as specified in A with 20 μl of PBS containing OVA (low dose: 1.5 μg or high dose: 3.1 μg), or XCL1-OVA vaccibodies (low dose 2.5 μg or high dose 5.0 μg) were analyzed for tumor volume. Control mice were treated with 20 μl of PBS. Tumor volume is shown for each individual mouse and the mean (horizontal bar) is indicated for each condition.***, p<0.001; **, p<0.01; *, p<0.05 and NS: non significant.
C Time line of the prophylactic setting involving laser-assisted, dermal delivery of 20 μl of PBS containing OVA (1.5 μg) or XCL1-OVA vaccibodies (2.5 μg), subcutaneaous inoculation of the B16-OVA melanoma, and tumor volume measurement.
The B16-OVA melanoma is not rejected by immune-competent syngeneic B6 mice, unless mice have been subjected to prophylactic or therapeutic immunization. To evaluate the capacity of laser-assisted, intradermal delivery of XCL1-OVA vaccibodies to inhibit the growth of B16-OVA tumors, B6 mice were subcutaneously inoculated in the flank with B16-OVA cells (FIG. 4A). Three days later, the ear of the mice was subjected to laser-assisted, dermal delivery of XCL1-OVA vaccibodies and tumor growth was monitored 16 days after inoculation. For the sake of comparison, mice received equimolar amounts of free OVA or PBS. […] To investigate the prophylactic effects on tumor growth of laser-assisted intradermal XCL1-OVA immunization, B6 mice were immunized with XCL1-OVA vaccibodies and subcutaneously inoculated with B16-OVA tumor cells 30 days later (FIG. 4C).
(§1) Mice were injected subcutaneously (s.c.) into the flank with 10^5 B16-OVA or B16 melanoma cells (Brown et al, 2001). Tumor size was assessed 14 to 16 days later using a caliper. The presence of T cells infiltrating the tumor was assessed after enzymatic treatment of tumor mass with collagenase 2 (Worthington) and Percoll gradient (Amersham-Pharmacia).

Assay [1] deals with tumor infiltrating CD8+ and CD4+ T cells. Kind of assay: Intracellular IFNgamma and tetramer staining of tumor-infiltrating T cells. The format is in vivo, mouse. The note with it: day 11 after immunization, PMA and ionomycin restimulation. How it is done:
D B6 mice were subcutaneously inoculated with B16-OVA or B16 and immunized 3 days later with 20 μl of PBS containing OVA (1.5 μg) or XCL1-OVA (2.5 μg) vaccibodies using laser-assisted, dermal delivery. On day 11 after immunization, the tumor mass of each mouse was excised and the percentage of […] cells determined among tumor infiltrating CD8^+ and CD4^+ T cells. Data are shown for each individual mouse and the mean (horizontal bar) is indicated for each condition. **, p<0.01; *, p<0.05 and NS for non significant.
A, B, C Mice were immunized as in FIG. 4C. […]
To assess whether the reduction in melanoma tumor growth observed upon treatment with XCL1-OVA vaccibodies was associated with the induction of endogeneous, antigen-specific CD8^+ T cells, wild-type and Xcr1^−/− mice were immunized via laser-assisted intradermal delivery of XCL1-OVA vaccibodies. Six days after immunization, the magnitude of OVA-specific T cell cytotoxicity was measured using an in vivo cytotoxic assay (FIG. 5 C). […]
Mice were injected subcutaneously (s.c.) into the flank with 10^5 B16-OVA or B16 melanoma cells (Brown et al, 2001). Tumor size was assessed 14 to 16 days later using a caliper. The presence of T cells infiltrating the tumor was assessed after enzymatic treatment of tumor mass with collagenase 2 (Worthington) and Percoll gradient (Amersham-Pharmacia). […]

Another assay relates to B16 melanoma. Kind of assay: B16 melanoma tumor model. The format is in vivo, mouse. The note with it: B6 mice immunized 3 days after inoculation, day 11 after immunization. How it is done: A B6 mice were subcutaneously inoculated with B16-OVA or B16 melanoma, and immunized 3 days later with XCL1-OVA vaccibodies using laser-assisted, dermal delivery. On day 11 after immunization, the volume of the tumor developing in each mouse was determined. Data are shown for each individual mouse and the mean (horizontal bar) is indicated for each condition. **, p<0.01.
The B16-OVA melanoma is not rejected by immune-competent syngeneic B6 mice, unless mice have been subjected to prophylactic or therapeutic immunization. To evaluate the capacity of laser-assisted, intradermal delivery of XCL1-OVA vaccibodies to inhibit the growth of B16-OVA tumors, B6 mice were subcutaneously inoculated in the flank with B16-OVA cells (FIG. 4A). Three days later, the ear of the mice was subjected to laser-assisted, dermal delivery of XCL1-OVA vaccibodies and tumor growth was monitored 16 days after inoculation. For the sake of comparison, mice received equimolar amounts of free OVA or PBS. […]
as §1

Assay [2] relates to OT-I CD8+ and OT-II CD4+ T cells. Kind of assay: Proliferation of adoptively transferred CTV-labeled OT-I and OT-II T cells after laser-assisted dermal antigen delivery. The format is in vivo, mouse. The method, then:
B Single-cell suspension were prepared from ear-draining, auricular LNs from B6 mice that received OT-I and OT-II T cells and were immunized by applying on laser-microporated ear 20 μl of PBS containing OVA (3.1 μg), XCL1-OVA vaccibodies (5 μg), XCL1 (1.8 μg) plus OVA (3.1 μg), or PBS alone as a control. CTV dilution of OT-I and OT-II T cells was measured 72 h after antigen delivery. Numbers in histograms indicate the percentage of divided T cells (n=3).
To test whether targeting XCR1^+ dermal DCs with antigen-loaded XCL1-based vaccibodies induced the activation of antigen-specific T cells in vivo, the model antigen OVA was inserted into XCL1-based vaccibodies. Mice were adoptively transferred with CellTraceViolet (CTV)-labeled, OT-I CD8^+ T cells, which express a T cell receptor (TCR) specific for SIINFEKL, an ovalbumin (OVA) peptide presented by H-2K^b, and OT-II CD4^+ T cells, which express a TCR specific for an OVA peptide presented by H2-A^b. One day later, the ear of the mice were subjected to laser-assisted microporation and topical application of XCL1-OVA vaccibodies. To compare the potency of the XCL1-OVA formulation with that of free OVA, mice were also treated with concentrations of OVA equimolar to that present in XCL1-OVA vaccibodies. Three days after immunisation, single-cell suspensions were prepared from ear-draining auricular lymph nodes (LNs) and the extent of OT-I and OT-II cell proliferation was determined by CTV dilution (FIG. 3A).
A P.L.E.A.S.E. portable laser developed by Pantec Biosolutions AG (Bach et al, 2012) was used with the following setting: fluence: 11.9 J/cm^2, pulse duration: 75 μs; RepRate: 200 Hz; pulses per pore: 2, pore array size: 14 mm^2 and pore density 8%. P.L.E.A.S.E.-assisted skin microporation was performed on the ear of anesthetized mice. 20 μl of sterile PBS, 20 μl of sterile PBS containing 1.5 μg (low) or 3.1 μg (high) OVA, or 20 μl of sterile PBS containing 2.5 μg (low) or 5 μg (high) XCL1-OVA were then evenly applied on the microporated ear surface. The PBS solution percolated inside the micropores in less than 10 minutes.
OT-I and OT-II T cells were isolated from pooled LNs and spleen of OT-I or OT-II mice kept on a Rag-2^−/−-B6 [CD45.1] background using CD8^+ and CD4^+ T cell negative isolation kits (Dynal, Invitrogen), respectively. Purity was determined by staining with CD4, CD8, CD5 and TCR Vα2. For CTV labeling, purified OT-I and OT-II T cells were resuspended in PBS containing 2.5 mM cell trace violet (CTV) (Molecular Probes) for 3 min at room temperature. 10^6 CTV-labeled OT-I and OT-II T cells were adoptively transferred into the specified mice. At the indicated times, single-cell suspensions were prepared from the auricular LNs draining the immunized ears and OT-I and OT-II T cells were analyzed by FACS.

Assay [3] deals with SIINFEKL peptide-pulsed splenocytes. Kind of assay: In vivo cytotoxicity assay. Details: species or system mouse. How it is done: C B6 (WT) and Xcr1^−/− mice were subjected to laser-assisted, dermal delivery of 20 μl of PBS containing OVA (1.5 μg) or XCL1-OVA (2.5 μg) vaccibodies or of 20 μl of PBS (control), or. On day 6, mice were injected with CFSE-labeled target cells to quantitate the induced OVA-specific cytotoxicity in vivo (see Materials and Methods). The percent specific lysis is shown for each individual mouse and the mean (horizontal bar) is indicated for each condition. *, p<0.05.
To assess whether the reduction in melanoma tumor growth observed upon treatment with XCL1-OVA vaccibodies was associated with the induction of endogeneous, antigen-specific CD8^+ T cells, wild-type and Xcr1^−/− mice were immunized via laser-assisted intradermal delivery of XCL1-OVA vaccibodies. Six days after immunization, the magnitude of OVA-specific T cell cytotoxicity was measured using an in vivo cytotoxic assay (FIG. 5 C). […] Therefore, laser-assisted, intradermal delivery of XCL1-OVA vaccibodies induced anti-tumoral responses that can be correlated with the presence of OVA-specific IFNgamma^+ T cells in the regressing tumor mass.
Splenocytes from B6 mice were pulsed with the SIINFEKL peptide or left untreated and labeled with low (0.25 mM) or high (2.5 mM) dose of CTV, respectively. […] 36 h later, single-cell suspension were prepared from spleen and the ratio of CTV^high to CTV^low cells was determined by FACS.

Where [4] appears, read: B6 mice, auricular LNs, 3 days after immunisation.

With “ovalbumin [model antigen ovalbumin in free form, equimolar comparator, reference compound]”, the “tumor growth, therapeutic setting” value in the assay on B16-OVA melanoma is “unable to slow down tumor growth”. Also, in assay [1], the “IFN gamma production by CD8+ and CD4+ T cells infiltrating B16-OVA tumor mass” value is listed as “did not induce IFN[…]^+ T cells over PBS control”.

B1: XCL1-OVA vaccibodies: homodimeric chimeric protein of XCL1 chemokine, dimerization unit of hinge and CH3 domain of human IgG3, and OVA antigen moiety (protein)
chain: VGTEVLEESSCVNLQTQRLPVQKIKTYIIWEGAMRAVIFVTKRGLKICADPEAKWVKAAIKTVDGRASTRKNMAETVPTGAQRSTSTAITLTGELKTPLGDTTHTCPRCPEPKSCDTPPPCPRCPEPKSCDTPPPCPRCPEPKSCDTPPPCPRCPAPELLGGPSVFLFPPKPKDTLMISRTPEVTCVVVDVSHEDPEVQFKWYVDGVEVHNAKTKPREEQYNSTFRVVSVLTVLHQDWLNGKEYKCKVSNKALPAPIEKTISKTKGQPREPQVYTLPPSREEMTKNQVSLTCLVKGFYPSDIAVEWESSGQPENNYNTTPPMLDSDGSFFLYSKLTVDKSRWQQGNIFSCSVMHEALHNRFTQKSLSLSPGKGSIGAASMEFCFDVFKELKVHHANENIFYCPIAIMSALAMVYLGAKDSTRTQINKVVRFDKLPGFGDSIEAQCGTSVNVHSSLRDILNQITKPNDVYSFSLASRLYAEERYPILPEYLQCVKELYRGGLEPINFQTAADQARELINSWVESQTNGIIRNVLQPSSVDSQTAMVLVNAIVFKGLWEKAFKDEDTQAMPFRVTEQESKPVQMMYQIGLFRVASMASEKMKILELPFASGTMSMLVLLPDEVSGLEQLESIINFEKLTEWTSSNVMEERKIKVYLPRMKMEEKYNLTSVLMAMGITDVFSSSANLSGISSAESLKISQAVHAAHAEINEAGREVVGSAEAGVDAASVSEEFRADHPFLFCIKHIATNAVLFFGRCVSP
For B1, in the assay with B16 melanoma, the “tumor growth of B16 melanoma” value is listed as “not able to control the growth of B16 melanoma”. Also, in assay [2] (setting [4]), the “effectiveness at eliciting CD4+ T cell proliferation relative to free OVA, per molecule” value amounted to 3 times and the “effectiveness at eliciting CD8+ T cell proliferation relative to free OVA, per molecule” value was found to be 15 times. Further, in assay [2] (B6 mice, ear-draining auricular LNs, 72 h after laser-assisted delivery, equimolar amounts), the “OT-I and OT-II cell proliferation (CTV dilution) compared with free OVA” value was “triggered a higher proliferation of OT-I and OT-II cells than free OVA”. Further, in assay [2] (Xcr1−/− mice), the “magnitude of OT-I and OT-II proliferation” value is given as “comparable to that of OVA”. The “proliferation of OT-I and OT-II T cells outside draining LNs” value in assay [2] (spleen and LNs that drain territories distinct from the ear, 72 h) was “showed no sign of proliferation”. The “inhibition of B16-OVA tumor growth, XCR1 dependence” value with B16-OVA melanoma (B6 (WT) vs Xcr1−/− mice) was “dependent on the expression of XCR1”. Also, the “tumor growth, prophylactic setting” value in the assay with B16-OVA melanoma (B6 mice immunized 30 days before inoculation, monitored 14 days after inoculation, vs OVA and PBS) is recorded as “significantly slowed down tumor growth”. In the assay with B16-OVA melanoma, the “tumor growth, therapeutic setting” value is “significantly suppressed tumor growth”. The “tumor growth, therapeutic setting, high dose vs low dose” value in the assay with B16-OVA melanoma (high dose 5.0 μg XCL1-OVA) is “tumor growth was further reduced”. For the same molecule, the “OVA-specific T cell cytotoxicity in vivo (specific lysis)” value in assay [3] (Xcr1−/− mice) was “absence of detectable lysis”. Further, the “OVA-specific T cell cytotoxicity in vivo” value in assay [3] (wild-type mice, six days after immunization, vs PBS treated mice) is reported as “induced a significant T cell cytotoxicity”. Also, in assay [1], the “IFN gamma production by CD8+ and CD4+ T cells infiltrating B16-OVA tumor mass” value was “capable of producing interferon (IFN) gamma”.
